Source: patent publication US20230331848A1 (BIOSION, published 2023)

Target: T1, human PD-1-his protein prepared in-house (human, UniProt Q15116 25-167, biotin-labeled (sites not given))
T1 construct: also called biotin labeled human PD-1-his
Assay: competitive ELISA: biotin human PD-1-his + antibody on coated Pembrolizumab (competitor)
Procedure: ELISA plates were washed once with wash buffer (PBST, PBS+0.05% Tween-20) and then blocked with 200 μl/well blocking buffer (5% w/v non-fatty milk in PBST) for 2 hours at 37° C. […] After incubation at 37° C. for 40 minutes, plates were washed using wash buffer, added and incubated with 100 μl/well Peroxidase Streptavidin for 40 minutes at 37° C. Plates were washed again using wash buffer. Finally, TMB was added and the reaction was stopped using 1M H₂SO₄. The absorbance was read on a microplate reader using dual wavelength mode with 450 nm for TMB and 630 nm as the reference wavelength, and the OD (450-630) values were plotted against antibody concentrations. Data was analyzed using Graphpad Prism software and IC₅₀ values were reported.

T1 sequence (Q15116 other isoform, or with tags, fused parts or gaps limits assumed): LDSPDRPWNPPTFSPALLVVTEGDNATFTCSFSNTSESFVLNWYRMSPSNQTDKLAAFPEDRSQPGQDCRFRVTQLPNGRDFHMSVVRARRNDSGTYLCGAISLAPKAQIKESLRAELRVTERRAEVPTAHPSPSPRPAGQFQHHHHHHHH

IC50: 0.48 nM
B1: mouse anti-PD-1 monoclonal antibody E1A9C8A7 (antibody, V domains shown)
VH: QVQLQQSGAEVVRPGVSVRISCKGSGYTFSDYVMHWMKQSHGESLEWIGVISTYHIPAVYNQKFKGKATMTVDKSSSTVYLELARLTSEDSAIYYCAREVYGDSYYFDVWGAGTTVTVSS
VL: DVLMTQIPLSLPVSLGDQVSISCRSSQSIVHSNGNTYLEWYLQKPGQSPKLLIYKVSNRFSGVPDRFSGSGSGTDFTLKISRVEAEDLGVYYCFQGSHVPYTFGGGTKLEIK
notes: Hybridoma-derived mouse mAb purified on Protein A; also called Mouse E1A9C8A7
